Assay results: article PMC314469, “Protein Interaction Networks by Proteome Peptide Scanning” (PLoS Biology, 2004)

T1: amphyphisin SH3 (AMPH_HUMAN), P49418
T1 chain: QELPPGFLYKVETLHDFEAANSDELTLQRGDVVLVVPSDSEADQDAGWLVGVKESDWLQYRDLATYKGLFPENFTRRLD


What was measured:
[1] = target: endophilin SH3 (SH3G2_HUMAN), Q99962; experiment: SPOT array
[2] = target: T1, amphyphisin SH3 (AMPH_HUMAN), P49418; experiment: SPOT array

| Binder | normalised SPOT signal, Boehringer light units (BLU); mean over the file's lines of this peptide [1] | normalised SPOT signal, Boehringer light units (BLU); mean over the file's lines of this peptide [2] |
| --- | --- | --- |
| RRDPPRRPPRNGYG [Q8WW30 14-28] | 5040 | 8150 |
| RPTVPARPPATHPR [Q8TDP0 171-185] | 14800 | 8140 |
| AATQPLRPPRGTAA [P53814 641-654] | 1480 | 11900 |
| AVKVFHRPWRRGWH [O60449 754-767] | 38.8 | 787 |
| RRNVPMKPPDEAKV [Q9H5Q5 226-240] | 147 | 2290 |
| RPSFLRRPVNQVVL [Q96MS0 257-270] | 171 | 43.9 |
| RPVAPRRPRDAVGQ [O43541 61-74] | 1530 | 3660 |
| RPPPPRRPQGPPPP [Q04118 259-272] | 3820 | 35.7 |
| RPPNLKRPEDYEAV [O75992 403-416] | 67.7 | 12 |
| RQGPPQKPPGPAGP [P17600 586-600] | 325 | 46.6 |
| RPPVPPRPPRPPET [P52849 66-80] | 8560 | 5400 |
| RQLRLRRPDDGSRE [Q9NR61 553-566] | 61.3 | 39.7 |
| RPPGPRRPERGPRG [P08913 304-317] | 4970 | 13300 |
| RQIPPYRPPQQGPP [Q15532 247-261] | 68 | 170 |
| RRLALRRPEILVQP [Q96M62 296-309] | 31.7 | 9.3 |
| AVMALRRPGERQYR [Q9P0P1 47-60] | 206 | 38.9 |
| RRRSPPRPPSRPAR [Q96JH1 1030-1044] | 9450 | 21500 |
| RPVLPQRPPEERPP [Q9BXX0 822-836] | 420 | 252 |
| RPPPPAKPPPDEEE [Q92625 451-465] | 89 | 32.4 |
| RSGNLKRPKIGKRF [Q9Y6X4 343-356] | 50.1 | 13.4 |
| RRGSPRRPRLSSSS [P46092 337-350] | 11.2 | 41.2 |

| Binder | normalised SPOT signal, Boehringer light units (BLU); mean over the file's lines of this peptide [1] | normalised SPOT signal, Boehringer light units (BLU); mean over the file's lines of this peptide [2] |
| --- | --- | --- |
| RQSQLQRPLRGFTW [Q9HCU0 92-105] | 235 | 1210 |
| RQQTLPRPMKTLQR [O43161 2760-2773] | 67.7 | 79.1 |
| AVKSLKRPLEATFD [Q9NR56 273-286] | 20.3 | 23.6 |
| RRQRPTRPPRQDKP [Q9Y520 1420-1434] | 3120 | 6770 |
| RRIHIKRPDDRAHL [Q9H3F6 298-311] | 70.2 | 20.8 |
| RRLQPRRPGYPPRP [Q96EZ6 93-106] | 325 | 58.2 |
| RRKAPPRPPRPAAP [O60486 5-18] | 9570 | 1450 |
| RSEAPRRPSRKGLR [Q14839 1380-1393] | 9710 | 12500 |
| RRSRLRRPAVRPTD [Q9BV18 42-55] | 28.4 | 41.8 |
| RRQPPARPPGPSTD [Q9BQA8 78-92] | 9600 | 1490 |
| RPPRPSRPPPPTPR [O43584 87-101] | 13600 | 7260 |
| RQPRPPRPPLGDRP [Q9Y5R2 356-370] | 4010 | 1470 |
| RRSPPRRPAWTLGI [Q9HDB5 8-21] | 1580 | 88.8 |
| RRPALHRPIKVNLL [Q9NWI3 259-272] | 109 | 111 |
| RPSTLRRPAYRDNQ [Q9Y520 1361-1374] | 112 | 44.5 |
| RRQPPVRPGRVHLP [P31152 530-543] | 7420 | 4120 |
| RPTFLRRPINQVVL [Q9HCK4 226-239] | 575 | 169 |
| RRARPRRPREAPAP [Q96Q34 14-27] | 144 | 35.2 |
| RPRRPRRPGPSDPA [Q96QG0 344-357] | 1340 | 594 |
| RSKSPRRPSPTARG [Q9BZW7 5-18] | 121 | 41.9 |
| RQHLPERPRRSPLS [Q9H6G5 120-133] | 11100 | 5990 |
